For test [1], the target named is glutathione-S-transferase fusion protein containing domains v3-v10 of human CD44 (human) (UniProt P16070). Briefly: ratio of affinities from SPR on GST/CD44v3-v10.
For test [2] the target is unchanged. Briefly: SPR (BIAcore 2000), GST/CD44v3-v10 immobilised on CM5.
Test [3] addresses CD44v6 (human CD44 variant isoform containing exon v6) on human tumour cells (human) (UniProt P16070). Briefly: immunoreactivity assay, 186Re-MAG3-labelled MAb on fixed UM-SCC-11B cells.
The target of test [4] is glutathione-S-transferase fusion protein containing domains v3-v10 of human CD44 (human) (UniProt P16070). Briefly: SPR (BIAcore 2000), GST/CD44v3-v10 immobilised on CM5, MAb 8-67 nM injected.
The target of test [5] is CD44v6 (human CD44 variant isoform containing exon v6) on human tumour cells (human) (UniProt P16070). Briefly: immunoreactivity assay, 131I-labelled MAb on glutaraldehyde-fixed UM-SCC-11B cells, experiment 2.
Test [6] shares this target. Briefly: immunoreactivity assay, 131I-labelled MAb on glutaraldehyde-fixed UM-SCC-11B cells, experiment 3.
Test [7] shares this target. Briefly: immunoreactivity assay of clinical 99mTc-/186Re-MAG3-labelled BIWA 4 batches on fixed UM-SCC-11B cells.
Test [8] has the same target. Briefly: immunoreactivity assay on fixed UM-SCC-11B cells, linear extrapolation to infinite antigen excess, experiment 2.
Test [9] shares this target. Briefly: immunoreactivity assay on fixed UM-SCC-11B cells, linear extrapolation to infinite antigen excess, experiment 3.
The target is the same in test [10]. Briefly: immunoreactivity assay, 125I-labelled MAb on glutaraldehyde-fixed UM-SCC-11B cells, experiment 3.

Here are results for two molecules from US20050214212A1.

Bounds are passed on as bounds.

glutathione-S-transferase fusion protein containing domains v3-v10 of human CD44 (human), sequence (P16070 267-604): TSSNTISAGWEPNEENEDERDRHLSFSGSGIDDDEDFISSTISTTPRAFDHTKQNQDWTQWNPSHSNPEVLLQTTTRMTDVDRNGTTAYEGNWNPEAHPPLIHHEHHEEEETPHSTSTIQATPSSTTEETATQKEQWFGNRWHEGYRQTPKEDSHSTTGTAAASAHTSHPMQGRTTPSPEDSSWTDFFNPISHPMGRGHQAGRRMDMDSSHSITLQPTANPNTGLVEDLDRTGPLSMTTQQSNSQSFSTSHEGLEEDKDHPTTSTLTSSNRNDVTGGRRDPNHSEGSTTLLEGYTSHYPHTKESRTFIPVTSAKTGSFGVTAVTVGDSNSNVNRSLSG

B1: hMAb BIWA 4 (bivatuzumab), humanised CDR-grafted antibody without framework modifications (antibody, human IgG1, kappa, V domains shown)
VH: EVQLVESGGGLVKPGGSLRLSCAASGFTFSSYDMSWVRQAPGKGLEWVSTISSGGSYTYYLDSIKGRFTISRDNAKNSLYLQMNSLRAEDTAVYYCARQGLDYWGRGTLVTVSS
VL: EIVLTQSPATLSLSPGERATLSCSASSSINYIYWYQQKPGQAPRLLIYLTSNLASGVPARFSGSGSGTDFTLTISSLEPEDFAVYYCLQWSSNPLTFGGGTKVEIKR
For the molecule B1, the fold lower affinity than cMAb BIWA 2 in test [1] was found to be 14 fold. For the same molecule, in test [1], the fold lower affinity than hMAb BIWA 8 is 4 fold. This molecule also had a Kd relative to murine BIWA 1 in test [2] of 10.5. Further, the immunoreactive fraction is above 75% in [3] and above 80% in test [7]. Further, the Kd in test [4] is 3.4 nM. This molecule also registered a koff in test [4] of 0.00022 s⁻¹. Moreover, in test [4], the kon came out at 65000 M⁻¹ s⁻¹. Also, the Binding to 5 × 10^6 cells (%) in test [5] worked out at 77.4%; in test [6], 77.3%. For the same molecule, the Binding Extrapolated (%) (immunoreactive fraction) in [8] is 82.3%; in test [9], 74.5%.

B2: hMAb BIWA 8, humanised CDR-grafted antibody with framework modifications (antibody, human IgG1, kappa, V domains shown)
VH: EVQLVESGGGLVKPGGSLRLSCAASGFTFSSYDMSWVRQAPGKGLEWVSTISSGGSYTYYLDSIKGRFTISRDNAKNSLYLQMNSLRAEDTAVYYCARQGLDYWGRGTLVTVSS
VL: EIVLTQSPATLSLSPGERATLSCSASSSINYIYWLQQKPGQAPRILIYLTSNLASGVPARFSGSGSGTDFTLTISSLEPEDFAVYYCLQWSSNPLTFGGGTKVEIKR
In [2], B2 showed a Kd relative to murine BIWA 1 of 2.6. For the same molecule, in test [3], the immunoreactive fraction is above 75%. Further, in [4], the equilibrium dissociation constant (Kd) was found to be 0.84 nM, the koff was determined as 6.3e-05 s⁻¹ and the kon was 75000 M⁻¹ s⁻¹. The same molecule displayed a Binding to 5 × 10^6 cells (%) in test [10] of 91.8%. Also, in [9], the Binding Extrapolated (%) (immunoreactive fraction) is 92.1%.
